Laboratory results from patent US20030119102A1 (Takeda / Millennium, published 2003).

T1: Kv2.1 (rat brain membranes) (rat, UniProt P15387 1-857)
T1 sequence (looked up): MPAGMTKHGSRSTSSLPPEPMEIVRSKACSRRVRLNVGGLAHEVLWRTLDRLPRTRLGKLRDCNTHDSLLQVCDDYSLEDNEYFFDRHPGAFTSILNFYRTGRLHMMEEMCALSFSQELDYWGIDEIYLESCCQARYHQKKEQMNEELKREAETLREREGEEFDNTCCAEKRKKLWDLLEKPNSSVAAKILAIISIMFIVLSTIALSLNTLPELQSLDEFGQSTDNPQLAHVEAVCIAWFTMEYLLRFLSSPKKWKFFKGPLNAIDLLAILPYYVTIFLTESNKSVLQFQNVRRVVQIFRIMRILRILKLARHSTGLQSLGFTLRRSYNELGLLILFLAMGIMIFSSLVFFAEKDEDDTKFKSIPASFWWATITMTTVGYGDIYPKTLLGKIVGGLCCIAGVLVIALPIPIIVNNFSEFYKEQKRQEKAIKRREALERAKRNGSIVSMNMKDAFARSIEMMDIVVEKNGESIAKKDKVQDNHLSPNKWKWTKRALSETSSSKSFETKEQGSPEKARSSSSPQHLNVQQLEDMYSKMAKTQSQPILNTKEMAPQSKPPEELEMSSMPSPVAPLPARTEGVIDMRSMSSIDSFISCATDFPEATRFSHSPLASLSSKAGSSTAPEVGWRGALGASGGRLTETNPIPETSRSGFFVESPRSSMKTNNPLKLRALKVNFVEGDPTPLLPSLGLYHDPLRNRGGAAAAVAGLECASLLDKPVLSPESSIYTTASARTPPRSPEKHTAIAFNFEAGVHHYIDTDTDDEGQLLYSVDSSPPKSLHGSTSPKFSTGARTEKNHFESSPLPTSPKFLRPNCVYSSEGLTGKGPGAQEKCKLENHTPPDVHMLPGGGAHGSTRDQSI

T2: rat 19r (rat, UniProt P16446 1-271, limits assumed)
T2 construct: also called partial rat 19r; phosphatidylinositol transfer protein alpha
T2 sequence: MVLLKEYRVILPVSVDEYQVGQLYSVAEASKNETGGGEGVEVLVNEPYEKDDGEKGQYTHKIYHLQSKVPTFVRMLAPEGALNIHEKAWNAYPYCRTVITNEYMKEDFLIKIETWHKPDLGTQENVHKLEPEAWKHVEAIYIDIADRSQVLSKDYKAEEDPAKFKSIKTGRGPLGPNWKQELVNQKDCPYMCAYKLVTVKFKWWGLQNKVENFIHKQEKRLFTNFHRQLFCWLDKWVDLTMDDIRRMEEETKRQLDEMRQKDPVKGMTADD

T3: rat 1p (rat, UniProt B9EHT4 181-427 (mouse entry), limits assumed)
T3 construct: Partial-length clone, two-hybrid prey; also called Ip; lp
T3 sequence: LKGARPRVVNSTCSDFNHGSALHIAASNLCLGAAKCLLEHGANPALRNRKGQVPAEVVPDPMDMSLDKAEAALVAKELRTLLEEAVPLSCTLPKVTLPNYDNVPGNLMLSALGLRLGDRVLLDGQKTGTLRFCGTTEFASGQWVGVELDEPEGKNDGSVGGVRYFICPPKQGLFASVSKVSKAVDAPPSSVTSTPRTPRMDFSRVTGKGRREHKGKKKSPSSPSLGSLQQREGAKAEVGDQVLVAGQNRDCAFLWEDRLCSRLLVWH

T4: rat Kv4.2 α-subunit (rat, UniProt Q63881 1-630)
T4 sequence (looked up): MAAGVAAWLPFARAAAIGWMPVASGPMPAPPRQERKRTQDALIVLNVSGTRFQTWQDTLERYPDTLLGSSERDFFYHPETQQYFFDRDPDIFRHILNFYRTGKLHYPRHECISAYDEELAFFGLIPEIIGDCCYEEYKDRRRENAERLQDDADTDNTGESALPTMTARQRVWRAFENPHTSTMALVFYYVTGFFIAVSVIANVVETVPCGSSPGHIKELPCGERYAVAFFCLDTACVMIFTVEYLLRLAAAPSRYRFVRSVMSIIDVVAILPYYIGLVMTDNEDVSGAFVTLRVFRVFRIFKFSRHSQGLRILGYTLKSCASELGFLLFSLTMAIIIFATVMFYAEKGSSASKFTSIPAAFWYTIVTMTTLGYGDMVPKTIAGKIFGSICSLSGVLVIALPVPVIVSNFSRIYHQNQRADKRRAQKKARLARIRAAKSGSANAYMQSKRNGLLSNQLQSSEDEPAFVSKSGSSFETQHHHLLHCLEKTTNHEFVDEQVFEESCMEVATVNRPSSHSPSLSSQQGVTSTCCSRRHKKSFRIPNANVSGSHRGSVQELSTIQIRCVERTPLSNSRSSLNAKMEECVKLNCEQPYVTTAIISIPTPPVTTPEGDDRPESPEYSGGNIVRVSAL

B1: rKv1.1N (other, rat, UniProt P10499 1-164, looked up)
chain: MTVMSGENADEASAAPGHPQDGSYPRQADHDDHECCERVVINISGLRFETQLKTLAQFPNTLLGNPKKRMRYFDPLRNEYFFDRNRPSFDAILYYYQSGGRLRRPVNVPLDMFSEEIKFYELGEEAMEKFREDEGFIKEEERPLPEKEYQRQVWLLFEYPESSG
notes: Bait of the specificity test; the construct is not described; also called Kv1.1 subunits; rKvl.iN

Legend:
[1] = target: T1, Kv2.1 (rat brain membranes); assay: co-immunoprecipitation from rat brain synaptic membranes
rKv1.1N = target: B1; assay: yeast two-hybrid
rat 19r = target: T2, rat 19r; assay: yeast two-hybrid
rat 7s = target: T5, rat 7s (rat, UniProt P50516 348-617 (mouse entry), limits assumed); assay: yeast two-hybrid
T5 construct: Partial-length clone, two-hybrid prey; Rat ortholog of the vacuolar H(+)-ATPase catalytic subunit A
T5 sequence (P50516 348-617 limits assumed): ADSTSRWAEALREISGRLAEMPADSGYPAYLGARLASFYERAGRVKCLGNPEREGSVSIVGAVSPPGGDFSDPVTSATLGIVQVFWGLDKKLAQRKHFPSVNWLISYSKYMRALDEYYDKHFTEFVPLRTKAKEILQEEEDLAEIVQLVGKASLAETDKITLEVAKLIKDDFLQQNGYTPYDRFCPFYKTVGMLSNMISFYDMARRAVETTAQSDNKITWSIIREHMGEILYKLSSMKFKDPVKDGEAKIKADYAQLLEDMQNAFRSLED

rat 1p = target: T3, rat 1p; assay: yeast two-hybrid
rat Kv4.2 α-subunit [2] = target: T4, rat Kv4.2 α-subunit; assay: cell-based or functional assay
rat Kv4.2 α-subunit [3] = target: T4, rat Kv4.2 α-subunit; assay: immunoprecipitation from rat brain membranes

binding result [1]	binding result (rKv1.1N)	Binder	further results
no binding		KChIP3 of rat brain membranes (other, UniProt Q9JM47 1-256, looked up, also called PCIPs (KChIPs 1, 2, and 3)) MQRTKEAMKASDGSLLGDPGRIPLSKREGIKWQRPRFTRQALMRCCLIKWILSSAAPQGSDSSDSELELSTVRHQPEGLDQLQAQTKFTKKELQSLYRGFKNECPTGLVDEDTFKLIYSQFFPQGDATTYAHFLFNAFDADGNGAIHFEDFVVGLSILLRGTVHEKLKWAFNLYDINKDGYITKEEMLAIMKSIYDMMGRHTYPILREDAPLEHVERFFQKMDRNQDGVVTIDEFLETCQKDENIMSSMQLFENVI	
	no binding	rat 33b07 (other, also called partial rat 33b07 (clone name 9o)) MNGVEGNNELPLANTSTSALVPEDLDLKQDQPLSEETDTVREMEAAGEAGAEGGASPDSEHCDPQLCLRVAENGCAAAAGEGLEDGLSSSKCGDAPLASVAANDSNKNGCQLAGPLSPAKPKTLEASGAVGLGSQMMPGPKKTKVMTTKGAISATTGKEGEAGAAMQEKKGVQKEKKAAGGGKDETRPRAPKINNCMDSLEAIDQELSNVNAQADRAFLQLERKFGRMRRLHMQRRSFIIQNIPGFWVTAFRNHPQLSPMISGQDEDMMRYMINLEVEELKHPRAGCKFKFIFQSNPYFRNEGLVKEYERRSSGRVVSLSTPIRWHRGQEPQAHIHRNREGNTIPSFFNWFSDHSLLEFDRIAEIIKGELWSNPLQYYLMGDGPRRGVRVPPRQPVESPRSFRFQSG	
		B1	binding result (rat 19r): no binding; binding result (rat 7s): no binding; binding result (rat 1p): no binding
	no binding	rat 29x (other, Two-hybrid prey; also called SOCS-1; JAB) ARLPAPEHARQQPLLSGPEPGSSARVPVPGVASRRQPRGGKPPSGDGLESGPSPRPLLHARGEAGLHRQSGRVPHTGTAYFADEPTEAQAPGGFCVSPSLLGVRWPACATRTPGSLPLSPPSAQPRTLWPTPPAGPSSRMVARNQVAADNAISPASEPRRRPEPSSSSSSSSPAAPARPRPCPVVPAPAPGDTHFRTFRSHSDYRRITRTSALLDACGFYWGPLSVHGAHERLRAEPVGTFLVRDSRQRNCFFALSVKMASGPTSIRVHFQAGRFHLDGSRETFDCLFELLEHYVAAPRRMLGAPLRQRRVRPLQELCRQRIVAAVGRENLARIPLNPVLRDYLSSFPFQI	
no binding		rat 1v (other, also called KChIP1; KchIP1) MPARVLLAYPGTEMLTQGESEGLQTLGIVVVLCSSLKLLHYLGLIDLSDDKIEDDLEMTMVCHRPEGLEQLEAQTNFTKRELQVLYRGFKNECPSGVVNEETFKQIYAQFFPHGDASTYAHYLFNAFDTTQTGSVKFEDFVTALSILLRGTVHEKLRWTFNLYDINKDGYINKEEMMDIVKAIYDMMGKYTYPVLKEDTPRQHVDVFFQKMDKNKDGIVTLDEFLESCQEDDNIMRSLQLFQNVM	Kv4.2 current density in CHO cells, fold increase with coexpression of KChIP1 (rat Kv4.2 α-subunit [2]): 12 fold; amplitude of the Kv4.2 current in CHO cells, fold increase in the presence of KChIP1 (rat Kv4.2 α-subunit [2]): ~7.5 fold
	no binding	rat 7q (other, Two-hybrid prey; The full length was obtained by RACE PCR; also called RAB2) MAYAYLFKYIIIGDTGVGKSCLLLQFTDKRFQPVHDLTIGVEFGARMITIDGKQIKLQIWDTAGQESFRSITRSYYRGAAGALLVYDITRRDTFNHLTTWLEDARQHSNSNMVIMLIGNKSDLESRREVKKEEGEAFAREHGLIFMETSAKTASNVEEAFINTAKEIYEKIQEGVFDINNEANGIKIGPQHAATNASHGGNQGGQQAGGGCC	
no binding		KChIP2 of rat brain membranes (other, UniProt Q9JM59 1-270, looked up, also called PCIPs (KChIPs 1, 2, and 3)) MRGQGRKESLSESRDLDGSYDQLTGHPPGPSKKALKQRFLKLLPCCGPQALPSVSETLAAPASLRPHRPRPLDPDSVEDEFELSTVCHRPEGLEQLQEQTKFTRRELQVLYRGFKNECPSGIVNEENFKQIYSQFFPQGDSSNYATFLFNAFDTNHDGSVSFEDFVAGLSVILRGTIDDRLSWAFNLYDLNKDGCITKEEMLDIMKSIYDMMGKYTYPALREEAPREHVESFFQKMDRNKDGVVTIEEFIESCQQDENIMRSMQLFDNVI	
		rat 9qm (other) MRGQGRKESLSESRDLDGSYDQLTGHPPGPSKKALKQRFLKLLPCCGPQALPSVSENSVEDEFELSTVCHRPEGLEQLQEQTKFTRRELQVLYRGFKNECPSGIVNEENFKQIYSQFFPQGDSSNYATFLFNAFDTNHDGSVSFEDFVAGLSVILRGTIDDRLSWAFNLYDLNKDGCITKEEMLDIMKSIYDMMGKYTYPALREEAPREHVESFFQKMDRNKDGVVTIEEFIESCQQDENIMRSMQLFDNVI	binding result (rat Kv4.2 α-subunit [3]): binds
	no binding	rat 5p (other, Two-hybrid prey; also called Calpactin I light chain; P10) MPSQMEHAMETMMLTFHRFAGEKNYLTKEDLRVLMEREFPGFLENQKDPLAVDKIMKDLDQCRDGKVGFQSFLSLVAGLIIACNDYFVVHMKQKK	
